Laboratory results as given in PMC3925092.

Key:
[1] = target: Hcp1 (hemolysin co-regulated protein 1) of the Sci-1 T6SS of enteroaggregative E. coli, wild type (enteroaggregative E. coli 17-2); assay: SPR; BIAcore T200, 25°C; Hcp1 immobilised by amine coupling (CM5 chip in the results, HC200m Xantech chip in the methods), Hcp1 3.75-120 µM as analyte in HBS-EP; steady state, 1:1 equilibrium model; hexamer with hexamer; Hcp1WW tested in the same conditions
[2] = target: Hcp1 (hemolysin co-regulated protein 1) of the Sci-1 T6SS of enteroaggregative E. coli, wild type (enteroaggregative E. coli 17-2); assay: SEC-MALS; SEC/MALS/UV/RI on KW803 and KW804 columns (Shodex), Tris-HCl 20 mM pH 7.5, NaCl 100 mM, 0.5 ml/min; monomers in the hexamer
[3] = target: Hcp1 N93W/S158W double mutant (Hcp1WW) (enteroaggregative E. coli 17-2); assay: SEC-MALS; MALLS-SEC-UV of Hcp1WW, data not shown; monomers in the hexamer
[4] = target: Hcp2 of enteroaggregative E. coli (second T6SS gene cluster), wild type (enteroaggregative E. coli 17-2); assay: SEC-MALS; SEC/MALS/UV/RI on KW803 and KW804 columns (Shodex), Tris-HCl 20 mM pH 7.5, NaCl 100 mM, 0.5 ml/min; monomers in the hexamer

Substance: Hcp1 (hemolysin co-regulated protein 1) of the Sci-1 T6SS of enteroaggregative E. coli, wild type (natural protein)
- Kd [1]: 7.2 µM
- stoichiometry N [2]: 6

Substance: Hcp1 N93W/S158W double mutant (Hcp1WW) (natural protein)
- stoichiometry N [3]: 6

Substance: Hcp2 of enteroaggregative E. coli (second T6SS gene cluster), wild type (natural protein)
- stoichiometry N [4]: 6
